Where “and” joins values, the source holds several entries; their conditions need not be identical. Equal values may be shown once.

Assay [1] deals with T1, Rhesus D antigen on RhD-positive human red blood cells (human, UniProt Q02161 2-417).
T1 sequence (looked up): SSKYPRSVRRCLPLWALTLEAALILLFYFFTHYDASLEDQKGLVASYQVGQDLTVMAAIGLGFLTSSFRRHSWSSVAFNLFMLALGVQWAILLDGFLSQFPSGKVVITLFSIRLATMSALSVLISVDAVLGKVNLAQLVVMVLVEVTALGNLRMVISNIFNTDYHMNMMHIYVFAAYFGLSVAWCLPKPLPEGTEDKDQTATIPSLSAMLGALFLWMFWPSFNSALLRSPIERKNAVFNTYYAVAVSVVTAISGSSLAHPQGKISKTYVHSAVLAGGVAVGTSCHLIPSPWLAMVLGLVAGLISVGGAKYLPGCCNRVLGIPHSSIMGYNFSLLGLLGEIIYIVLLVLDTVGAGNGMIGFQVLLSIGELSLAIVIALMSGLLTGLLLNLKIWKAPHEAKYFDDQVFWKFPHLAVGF
The assay can be described thus: cell-based or functional assay.

The target of assay [2] is T1, Rhesus D antigen on RhD-positive human …. The assay can be described thus: hemagglutination of bromelain-treated RhD-positive erythrocytes, Technicon Autoanalyzer, against the NIBSC polyclonal standard. The method, then: Briefly, bromelain-treated RhD positive red cells are incubated with various concentrations of anti-RhD antibodies. The cells are allowed to agglutinate over a period of time. The agglutinated cells are removed in the autoanalyzer and the rest of the erythrocytes are lysed using detergent. The optical density of the released hemoglobin is measured spectrophotometrically. The anti-D concentrations of the samples are calculated using a standard graph obtained from various concentrations of the Anti-D standard.

B1: anti-RhD monoclonal antibody RhD3 (antibody, human IgG3, kappa, V domains shown)
VH: QVTLKESGPVLVKPTETLTLTCTVSGFSLNNARMGVSWIRQPPGKALEWLAHIFSNDEKSYSTSLKSRLTISKDTSKSQVFLTMTNMDPVDTATYYCARTPITMVRGAIRLYYYYYMDVWGKGTTVTVSS
VL: DIQVTQSPSSLSASVGDRVTINCRASQSIGTYLNWYQQKPGKAPNLLIYAASSLQSGVPSRFSGSGSGTDFTLTISSLQPEDFATYYCQQTYSTPTWTFGRGTKVEIKR
Turning to B1, in assay [1], the “ADCC EC50 (ng of Active Ab/ml), Average” value is 0.3 ng of Active Ab/ml and 0.2 ng of Active Ab/ml; the “ADCC EC50 (ng of Active Ab/ml), Experiment 1” value (from here on “ADCC EC50 … Experiment 1”) was 0.2 ng of Active Ab/ml and 0.1 ng of Active Ab/ml; the “ADCC EC50 (ng of Active Ab/ml), Experiment 2” value (“ADCC EC50 … Experiment 2” for short) was 0.3 ng of Active Ab/ml and 0.2 ng of Active Ab/ml.

B2: anti-RhD monoclonal antibody RhD1 (antibody, human IgG1, lambda)
heavy: not shown
light: QSALTQPASVSGSPGQSITISCSGSSSDVGGYKYVSWYQQHPGKAPQLMIYDVNNRPSGVSNRFSGSKSGNTASLTISGLQAEDEADYYCSSYTSSSTRVFGGGTKLTVLGQPKAAPSVTLFPPSSEELQANKATLVCLISDFYPGAVTVAWKADSSPVKAGVETTTPSKQSNNKYAASSYLSLTPEQWKSHKSYSCQVTHEGSTVEKTVAPTECS
In the case of B2, in assay [1], the “ADCC EC50 (ng of Active Ab/ml), Average” value was 1.1 ng of Active Ab/ml and 0.7 ng of Active Ab/ml; the “ADCC EC50 … Experiment 1” value is 0.7 ng of Active Ab/ml and 0.4 ng of Active Ab/ml; the “ADCC EC50 … Experiment 2” value is 1.5 ng of Active Ab/ml and 0.9 ng of Active Ab/ml.

B3: RhD4 (IgG3 variant of RhD1: RhD1V3C heavy chain and RhD1 light chain) (antibody)
heavy: QVQLVQSGAEVKKPGSSVKVSCKASGGIFRTYAISWVRQAPGQGLEWMGGIIPMFGTVNYAQKFQGRVTISADKSTSTAYMELSRLRSEDTAVYYCARPPSGGCGGDCSRRGYYYAMDVWGQGTTITVSSASTKGPSVFPLAPCSRSTSGGTAALGCLVKDYFPEPVTVSWNSGALTSGVHTFPAVLQSSGLYSLSSVVTVPSSSLGTQTYTCNVNHKPSNTKVDKRVELKTPLGDTTHTCPRCPEPKSCDTPPPCPRCPEPKSCDTPPPCPRCPEPKSCDTPPPCPRCPAPELLGGPSVFLFPPKPKDTLMISRTPEVTCVVVDVSHEDPEVQFKWYVDGVEVHNAKTKPREEQFNSTFRVVSVLTVLHQDWLNGKEYKCKVSNKALPAPIEKTISKTKGQPREPQVYTLPPSREEMTKNQVSLTCLVKGFYPSDIAVEWESSGQPENNYNTTPPMLDSDGSFFLYSKLTVDKSRWQQGNIFSCSVMHEALHNRFTQKSLSLSPGK
light: B2 light
notes: IgG3, lambda chimera; The limits were converted from the nucleotide limits: variable region nt 58-448, constant region from nt 449; The NheI site was made by silent mutations only
In the case of B3, in assay [1], the “ADCC EC50 (ng of Active Ab/ml), Average” value was 0.3 ng of Active Ab/ml; the “ADCC EC50 … Experiment 1” value was 0.1 ng of Active Ab/ml; the “ADCC EC50 … Experiment 2” value was 0.5 ng of Active Ab/ml. For the same molecule, the “Agglutination Titer (µg of Active Ab per mg of Protein)” value in assay [2] is 303 µg of Active Ab per mg of Protein.

The values above are taken from patent publication US20120027769A1 (BHARAT SERUMS AND VACCINES, published 2012).
